Data from US20260242478A1 (published 2026).

Columns and labels:
[1] = biological target: T1, anti-CD28 scFv (VH - linker 1 - VL) (biotinylated (site not stated)); test: phage ELISA; biotinylated anti-CD28 scFv on neutravidin plate, clonal phage supernatant, anti-M13-HRP;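 note: before the phage were added, wells were pre-incubated with soluble CD28 protein in blocking buffer, or with blocking buffer alone, and were not washed in between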
[2] = biological target: T1, anti-CD28 scFv (VH - linker 1 - VL); test: phage ELISA as above; wells pre-incubated with soluble CD28 (competitor)
Method: Clonal phage were harvested as crude supernatants and screened via standard enzyme linked immunosorbent assays (ELISAs). […] Prior to the addition of clonal phage, wells were incubated with blocking buffer and CD28 soluble protein or blocking buffer alone. Without washing or aspirating, clonal phage supernatants were then added to the wells and incubated for a short time. Wells were then washed followed by detection of bound phage using a horse radish peroxidase conjugated anti-M13 antibody.

T1 sequence (scFv, as listed by the source): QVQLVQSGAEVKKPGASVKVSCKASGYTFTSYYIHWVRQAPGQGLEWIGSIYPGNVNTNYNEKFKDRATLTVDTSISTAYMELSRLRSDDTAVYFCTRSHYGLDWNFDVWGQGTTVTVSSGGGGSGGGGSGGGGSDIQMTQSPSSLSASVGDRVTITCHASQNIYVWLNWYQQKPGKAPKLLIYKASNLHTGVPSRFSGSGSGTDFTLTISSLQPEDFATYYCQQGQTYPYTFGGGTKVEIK

Binder	CD28 scFv signal [1]	CD28 scFv signal in presence of CD28 [2]
MDWCPRDLWTQCFF [Phage-343 clonal phage peptide MDWCPRDLWTQCFF]	1.93	0.119
MDWCPMYLWDECFF [Phage-356 clonal phage peptide MDWCPMYLWDECFF]	1.65	0.178
MDWCPRNLWHECFA [Phage-342 clonal phage peptide MDWCPRNLWHECFA]	1.97	0.175
MDWCPRPLWHECFA [Phage-359 clonal phage peptide MDWCPRPLWHECFA]	1.44	0.138
MDWCPMNLWHECFA [Phage-351 clonal phage peptide MDWCPMNLWHECFA]	1.74	0.16
MDWCPRYLWLECFN [Phage-354 clonal phage peptide MDWCPRYLWLECFN]	1.69	0.368
MDWCPRILWHECFS [Phage-362 clonal phage peptide MDWCPRILWHECFS]	1.39	0.174
MDWCPRHLWDECFN [Phage-341 clonal phage peptide MDWCPRHLWDECFN]	1.98	0.268
MDWCPRLLWHECFN [Phage-357 clonal phage peptide MDWCPRLLWHECFN]	1.6	0.109
IDWCPLHLWHECYH [Phage-353 clonal phage peptide IDWCPLHLWHECYH]	1.69	0.182
MHWCPRHLWSECFN [Phage-361 clonal phage peptide MHWCPRHLWSECFN]	1.43	0.478
MDWCPRFLWNECFY [Phage-338 clonal phage peptide MDWCPRFLWNECFY]	2	0.287
MDWCPRHLWHACFS [Phage-346 clonal phage peptide MDWCPRHLWHACFS]	1.83	0.167
MDWCPWFLWNECFN [Phage-350 clonal phage peptide MDWCPWFLWNECFN]	1.77	0.279
MDFCPRFLWHECFN [Phage-345 clonal phage peptide MDFCPRFLWHECFN]	1.91	0.225
MDWCPRHLWVHCFS [Phage-344 clonal phage peptide MDWCPRHLWVHCFS]	1.91	0.173
MDWCPRTLWDQCFF [Phage-339 clonal phage peptide MDWCPRTLWDQCFF]	1.99	0.314
MSWCPIDLWSECFA [Phage-340 clonal phage peptide MSWCPIDLWSECFA]	1.99	0.148
MDWCPIHLWYECFN [Phage-352 clonal phage peptide MDWCPIHLWYECFN]	1.73	0.203
MAWCPWYLWDECFN [Phage-348 clonal phage peptide MAWCPWYLWDECFN]	1.81	0.267
LDWCPRHLWALCFN [Phage-349 clonal phage peptide LDWCPRHLWALCFN]	1.78	0.24
MNWCPMHLWAECFN [Phage-363 clonal phage peptide MNWCPMHLWAECFN]	1.39	0.14
MDWCPMFLWHECFS [Phage-360 clonal phage peptide … (as printed)]	1.44	0.193
